Patent publication US20220144922A1 (Adimab, published 2022)
Residue numbers refer to the chain shown, from its start.

B1: ADI-15610 (antibody, V domains shown)
VH: EVQLLESGAEVKKPGSSVKVSCKASGGTFSSYAITWVRQAPGQGLEWMGGIIPILGTTTYAQRFQGRVTITADKSTTTAYMELSRLRSEDTAVYYCAKTVSQYPNTYNYGMDVWGQGTTVTVSS
VL: EIVMTQSPSSLSASVGDRVTITCRASQSVSIYLNWYQQKPGKTPELLIYGASRLQSGVPSRFSGSGSGTDFTLTISSLQPEDFATYYCLQTYSTPLTFGQGTKVEIK
notes: IgG; also called Antibody Number 175
B2: ADI-15609 (antibody, V domains shown)
VH: EVQLLESGGGVVQPGRSLKLSCAASGFSFTTDVMHWIRQAPGKGLEWVAVISTDGANSYYAESVKGRFTISRDNSKNTLFLQMSSLRAEDTAVYYCASQGYHYVNMADVGVPSFDHWGQGTLVTVSS
VL: ETTLTQSPSSLSASVGDRVTITCRARRSIDNYLNWYQHKPGTAPKLLIYAVSSLPSGVPSRFSGSGSGADFTLTISSLQPEDLATYYCQQSYMTPPTFGQGTKLEIK
notes: IgG
B3: ADI-15632 (antibody, V domains shown)
VH: QVQLVQSGGGLVQPGRSLRLSCTASGFSFSDYGVTWVRQAPGKGLEWIGFVRTKGYGGTTEYAASVRGRFTISRDDSKSVAYLQLNSLKVEDTAVYYCSGASRGFWSGPTYYYFGMDVWGHGTTVTVSS
VL: EIVLTQSPLSLAVTPGEPASISCRSSQSLLHGNGYNYLDWYLQKPGQSPQLLIFWGSYRASGAPDRFSASGSGSEFTLKIRRVEAEDVGVYYCMQPLQTTFGQGTKVDIK
notes: IgG; also called Antibody Number 197
B4: ADI-15602 (antibody, V domains shown)
VH: EVQLLESGGGVVQPGKSLRLSCVASGFTFGDYGMHWVRQAPGKGLEWVAVISDGGSTKYYADSVKGRFTIARDNSKNTLNLQMNSLRAEDTAVYYCAKDLAWIFGLGASYMDVWGQGTLVTVSS
VL: DIQLTQSPGTLSLSPGERATLSCRASQTVSSSYLAWYQQKPGQAPRLLIYDASSRATGIPDRFSGSGSGTDFTLTISRLEPEDFAVYYCQQYGSSPFGLTFGGGTKVEIK
notes: IgG
B5: ADI-15662 (antibody, V domains shown)
VH: QVQLQESGPGLVKPSETLSLTCTVSGGSVSRGSYYWTWIRQPPGKGLEWIGYIYYSGSTNYNPSLKSRVTISVDTSKNQFSLKLSSVTAADTAVYYCARDIGEDKYGTYYGMDVWGQGTTVTVSS
VL: EIVMTQSPATLSLSPGERATLSCRASQSVSSSLAWYQQKPGQAPRLLIYGASNRATGIPARFSGSGSGTDFTLTISSLEPEDFAVYYCQQRTNWPPVTFGPGTKVEIK
notes: IgG
B6: ADI-15603 (antibody, V domains shown)
VH: QVQLVQSGGGLVQPGGSLRLSCAASGFTFGRHAMTWVRQAPGKGLEWVAGITATGDPTYYPDSVKGRFAVSRDNSRNTLYLQMDSLRVEDTALYYCARSWDDYGDLDWYFALWGRGTMVTVSS
VL: EIVMTQSPAILSVSPGERATLSCRASQSVSSSLAWYQQKPGQAPRLLIYGASTRATGIPPRFSGSGSGTQFTLTISSLQSEDVAVYYCQQYSDWPPLTFGGGTKVEIK
notes: IgG
B7: ADI-15606 (antibody, V domains shown)
VH: B6 VH with Q1E, V5L, Q6E, G30R, H32Y, G50A, P57T, V88A, R98K, M118L
VL: B6 VL with E1D, V83F
notes: IgG
B8: ADI-15628 (antibody, V domains shown)
VH: QVQLVQSGGGVVQPGRSLRLSCAASGFTFSDFSMHWVRQAPGKGLEWVALISNDGSNKYYSDSLKGSFIISRDNSKNTLYLQLNSLGAEDTALYYCARDAVPHYDYVWGNFDYWGPGTLVTVSS
VL: QPVLTQPASVSASPGQSITISCTGTSSDVGGYNYVSWYQQHPGKAPKLIVYEVSNRPSGVSNRFSGSKSGNTASLTISGLQADDEADYYCSSYTSFTPVVFGGGTKVTVL
notes: IgG
B9: ADI-15652 (antibody, V domains shown)
VH: B8 VH with Q1E, V5L, Q6E, P116Q
VL: B8 VL with P2S, V50I, V107L
notes: IgG
B10: ADI-15663 (antibody, V domains shown)
VH: QVQLVQSGGGLVKPGGSLRLSCAASGFTFSSYTMNWVRQAPGKGLEWVSSITGGSSFTNYADSLEGRFTISRDNAKSSLFLQMNSLRVEDTAVYYCARDQPGTIFGVVQDYWGQGTLVTVSS
VL: QSVLTQPPSVSGAPGQRVTISCTGGSSNIGAGYDVHWYQQLPGTAPKLLIYGNSNRPSGVPDRFSGSKSGTSASLAITGLQAEDEADYYCQSYDSRLSVVFGGGTKVTVL
notes: IgG
B11: ADI-15604 (antibody, V domains shown)
VH: EVQLLESGGGLVKPGGSLRLSCGASGFKFSDYYMSWIRQAPGKGLEWVSHISSSNSYINYADSVKGRFTISRDNARNSLSLQMNSLRAEDTAVYYCARFPLYCSRSSCSHYVDYWGQGTLVTVSS
VL: B10 VL with G25S, S26G, G52D, S54N, A82V, S95R, R96S
notes: IgG; also called Antibody Number 170
B12: ADI-15617 (antibody, V domains shown)
VH: EVQLVESGGGLVQPGGSLRISCAASGFSISSHAVSWVRQAPGKGLEWVSVISGSGGDTHSVVQGRGSGTYYADSVKGRFTISRDNVRNTVYLQMNSLRVEDTAVYYCAKDDPTLFWSGSGYYGMDVWGQGTTVTVSS
VL: DIRVTQSPSSLSASVGDRVTITCQASQGISDSLNWYQQKPGKAPKLLIYGASKLEPGVSSRFSGRGSGRDFTFTISSLQPEDIGTYYCQQYDNLPLTFGPGTKLEIK
notes: IgG; also called Antibody Number 182
B13: ADI-15654 (antibody, V domains shown)
VH: QVQLVQSGAEVKRPGSSVKVSCKASGGTSSSYIISWVRQAPGQGLEWMGGIIPIPISGAPTYAQKFQGRANYAQKFEGRLTITADRLTSTAYMELSSLTSEDTAVYYCVRDERNGGYWGQGTLVTVSS
VL: QSALTQPASVSGSPGQSITISCTGTSNDVGAYNHVSWYQQHPGKAPKLMIYDVTNRPSGVSNRFSGSKSGNTASLTIFGLQTDDEADYYCSSYTISSTLVFGGGTQLTVL
notes: IgG; also called Antibody Number 218

Legend:
[1] = biological target: T1, postfusion RSV F ectodomain (F ΔFP), subtype A (respiratory syncytial virus subtype A, UniProt P03420 26-109; P03420 147-524); test: BLI, IgG on sensor
T1 construct: extracellular domain; also called Postfusion subtype A
Method: (§1) IgG binding to DS-Cav1 and FA FP was determined by BLI measurements using a FortéBio Octet HTX instrument (Pall Life Sciences). […] Data was analyzed using the ForteBio Data Analysis Software 7. The data was fit to a 1:1 binding model to calculate an association and dissociation rate, and KD was calculated using the ratio kd/kₐ.

[2] = biological target: RSV F protein of subtype B strain 18537, on virus (respiratory syncytial virus subtype B …, UniProt P13843 26-574); test: cell-based or functional assay
[3] = biological target: RSV F protein of subtype A strain A2, on virus (respiratory syncytial virus subtype A …, UniProt P03420 26-574); test: cell-based or functional assay
[4] = biological target: T2, prefusion-stabilized RSV F ectodomain (DS-Cav1), subtype B (respiratory syncytial virus subtype B); test: BLI, IgG on sensor
T2 construct: extracellular domain; also called Prefusion subtype B
Method: as §1

[5] = biological target: T3, postfusion RSV F ectodomain, subtype B (respiratory syncytial virus subtype B); test: BLI, IgG on sensor
T3 construct: extracellular domain; also called Postfusion subtype B
Method: as §1

Row | Binder | Kd [1] [nM] | Neut IC50 (ug/ml) subtype B [2] [µg/mL] | Neut IC50 (ug/ml) subtype A [3] [µg/mL] | Kd [4] [nM] | Kd [5] [nM] | binding result [1]
1 | B1 | 0.417 | > 10 | 0.727 | – | – | –
2 | B2 | – | > 10 | 0.022 | 0.628 | – | –
3 | B3 | 2.25 | 5.72 | 1.42 | 29.4 | – | –
4 | B4 | – | 0.015 | 0.046 | 0.807 | – | –
5 | B5 | 3.09 | > 10 | 6.25 | – | – | –
6 | B6 | – | 0.273 | 0.795 | 6.97 | 11.9 | –
7 | B7 | – | 0.802 | > 10 | 5.75 | 5.89 | –
8 | B8 | 2.47 | 0.034 | 0.014 | 0.659 | – | –
9 | B9 | 4.98 | 0.036 | 0.012 | 0.377 | – | –
10 | B10 | 2.32 | 0.019 | 0.003 | 0.287 | – | –
11 | B11 | – | 0.082 | 0.081 | 0.46 | 1.77 | –
12 | B12 | – | 0.038 | 0.022 | 0.71 | – | no binding (tested: BLI response <0.05 nm)
13 | B13 | – | 3.27 | 3.76 | 4.47 | – | no binding (tested: BLI response <0.05 nm)
